B1: Rab5 GDP/GTP exchange factor (Bos taurus (Bovine)), O18973 (parent)
chain: MSLKSERRGIHVDQSELLCKKGCGYYGNPAWQGFCSKCWREEYHKARQKQIQEDWELAERLQREEEEAFASSQSSQGAQSLTFSKFEEKKTNEKTRKVTTVKKFFSASSRVGAKKAEIQEAKAPSPSINRQTSIETDRVSKEFIEFLKTFHKTGQEIYKQTKLFLEAMHYKRDLSIEEQSECTQDFYQNVAERMQTRGKVPPERVEKIMDQIEKYIMTRLYKYVFCPETTDDEKKDLAIQKRIRALHWVTPQMLCVPVNEEIPEVSDMVVKAITDIIEMDSKRVPRDKLACITKCSKHIFNAIKITKNEPASADDFLPTLIYIVLKGNPPRLQSNIQYITRFCNPSRLMTGEDGYYFTNLCCAVAFIEKLDAQSLNLSQEDFDRYMSGQTSPRKQESENWSPDACLGVKQMYKNLDLLSQLNERQERIMNEAKKLEKDLIDWTDGIAKEVQDIVEKYPLEIRPPNQSVAAIDSENVENDKLPPPLQPQVYAG

Variants of: B1
Details: with UBE2D3, P61077-1
Sequence of UBE2D3, P61077-1 (P61077 whole entry): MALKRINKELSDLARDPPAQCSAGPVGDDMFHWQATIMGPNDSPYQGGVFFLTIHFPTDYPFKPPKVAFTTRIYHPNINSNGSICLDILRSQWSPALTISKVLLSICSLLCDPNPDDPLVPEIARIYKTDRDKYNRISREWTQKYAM

effect of a mutation on the interaction | Variant
disrupting interaction | Y25A;Y26A

Reference: IntAct's records for PubMed 16462746
